# Data published in article PMC12313985 (2025).
# Square brackets hold non-standard residues; d marks the D form. Ends that are not written are not given here. pS = N[C@@H](COP(=O)(O)O)C(=O)O
# T1: 14-3-3 protein zeta (14-3-3ζ) (UniProt P63104 1-245)
# T1 chain: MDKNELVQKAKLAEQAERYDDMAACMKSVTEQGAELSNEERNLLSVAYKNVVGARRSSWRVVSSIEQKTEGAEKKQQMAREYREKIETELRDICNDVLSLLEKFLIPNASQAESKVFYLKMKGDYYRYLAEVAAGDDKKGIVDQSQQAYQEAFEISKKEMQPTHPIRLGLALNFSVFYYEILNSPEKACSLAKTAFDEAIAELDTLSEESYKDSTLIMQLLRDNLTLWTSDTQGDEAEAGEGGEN
# Biological target: T1, 14-3-3 protein zeta (14-3-3ζ)
# Test: FP
row,Kd,Binder
1,> 100 µM,"SRTP[pS]LPTPPTRE (also: fluorescein (FITC) label, position not given here) [Fluorescein-labelled mono-phospho-Tau pS214 peptide]"
2,0.945 µM,"SRTP[pS]LPTPPTREGGGSGGGSGGGVTSKCG[pS]LGNIHHK (also: fluorescein (FITC) label, position not given here) [Fluorescein (FITC)-labelled bi-phospho Tau peptide pS2 (Tau^210–222-GGGSGGGSGGG-Tau^318–331)]"
3,> 100 µM,"VTSKCG[pS]LGNIHHK (also: fluorescein (FITC) label, position not given here) [Fluorescein-labelled mono-phospho-Tau pS324 peptide]"
